Data reported in PMC8455617 (2021).
Values joined by “and” are separate entries in the source; they are usually repeats but may differ in a detail not shown here. Equal values may be shown once. One block for each molecule: values may come before it.

How the values were obtained:
[1] = target: Mitochondrial citrate synthase (CS) (UniProt P00889); assay: Microscale thermophoresis (MST), Monolith NT.115, nano-red excitation, MST power 40%, excitation power 80%; conditions: 23 °C, 0.1 M potassium phosphate, no further salt stated, 0.1 M potassium phosphate at pH 6, 7 or 8 (the same buffer species at all pH values)
[2] = target: T1, citrate synthase, mitochondrial (Sus scrofa, UniProt P00889); assay: MST
T1 chain: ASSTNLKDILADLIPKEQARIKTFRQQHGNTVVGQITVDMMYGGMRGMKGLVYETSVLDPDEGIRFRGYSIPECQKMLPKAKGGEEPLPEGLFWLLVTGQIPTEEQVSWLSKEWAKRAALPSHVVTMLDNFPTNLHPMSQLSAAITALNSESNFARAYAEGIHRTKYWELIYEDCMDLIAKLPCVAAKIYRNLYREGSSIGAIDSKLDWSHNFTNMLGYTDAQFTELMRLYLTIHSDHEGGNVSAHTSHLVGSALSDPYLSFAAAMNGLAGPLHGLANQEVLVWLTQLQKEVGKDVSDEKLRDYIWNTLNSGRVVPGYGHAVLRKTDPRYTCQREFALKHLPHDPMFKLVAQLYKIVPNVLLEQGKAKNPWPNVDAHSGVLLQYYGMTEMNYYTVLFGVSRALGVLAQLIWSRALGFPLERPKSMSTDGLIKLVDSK

[3] = target: T1, citrate synthase, mitochondrial; assay: MST (pH 6)
[4] = target: T1, citrate synthase, mitochondrial; assay: MST (pH 7)

Molecule: Mitochondrial malate dehydrogenase (MDH), fluorescently labelled
Kd ([1]; pH 6): 680 ± 50 nM | Kd ([1]; pH 7): 1600 ± 450 nM | Kd ([1]; pH 8): 2290 ± 460 nM

B1: malate dehydrogenase, mitochondrial (protein)
chain: AKVAVLGASGGIGQPLSLLLKNSPLVSRLTLYDIAHTPGVAADLSHIETRATVKGYLGPEQLPDCLKGCDVVVIPAGVPRKPGMTRDDLFNTNATIVATLTAACAQHCPDAMICIISNPVNSTIPITAEVFKKHGVYNPNKIFGVTTLDIVRANAFVAELKGLDPARVSVPVIGGHAGKTIIPLISQCTPKVDFPQDQLSTLTGRIQEAGTEVVKAKAGAGSATLSMAYAGARFVFSLVDAMNGKEGVVECSFVKSQETDCPYFSTPLLLGKKGIEKNLGIGKISPFEEKMIAEAIPELKASIKKGEEFVKNMK
modifications: 10 mM succinyl-CoA
Kd [2]: 1970 nM

B2: malate dehydrogenase, mitochondrial (protein)
chain: B1 chain
modifications: 10 mM CoA
Kd [2]: 2320 nM

B3: malate dehydrogenase, mitochondrial (protein)
chain: B1 chain
modifications: 10 mM alpha-ketoglutarate
Kd [2]: 1140 nM

B4: malate dehydrogenase, mitochondrial (protein)
chain: B1 chain
modifications: 10 mM fumarate
Kd [2]: 1580 nM

B5: malate dehydrogenase, mitochondrial (protein)
chain: B1 chain
modifications: 10 mM malate
Kd [2]: 1850 nM and 1800 nM

B6: malate dehydrogenase, mitochondrial (protein)
chain: B1 chain
modifications: 10 mM acetyl-CoA
Kd [2]: 1100 nM

B7: malate dehydrogenase, mitochondrial (protein)
chain: B1 chain
modifications: 20 mM ATP
Kd [2]: 720 nM

B8: malate dehydrogenase, mitochondrial (protein)
chain: B1 chain
modifications: 10 mM oxaloacetate and NADH
Kd [2]: 2010 nM

The remaining lines, values ahead:

Kd [2]: 25100 nM
B9: malate dehydrogenase, mitochondrial (protein)
chain: B1 chain
modifications: 10 mM citrate

Kd [2]: 7500 nM
B10: malate dehydrogenase, mitochondrial (protein)
chain: B1 chain
modifications: 10 mM NADH

Kd [2]: 2290 nM | Kd [3]: 680 nM | Kd [4]: 1600 nM
B11: malate dehydrogenase, mitochondrial (protein)
chain: B1 chain

Kd [2]: 2240 nM
B12: malate dehydrogenase, mitochondrial (protein)
chain: B1 chain
modifications: 10 mM ADP

Kd [2]: 2230 nM
B13: malate dehydrogenase, mitochondrial (protein)
chain: B1 chain
modifications: 10 mM oxaloacetate

Kd [2]: 770 nM
B14: malate dehydrogenase, mitochondrial (protein)
chain: B1 chain
modifications: 5 mM ATP

Kd [2]: 520 nM
B15: malate dehydrogenase, mitochondrial (protein)
chain: B1 chain
modifications: 10 mM oxaloacetate and acetyl-CoA

Kd [2]: 890 nM
B16: malate dehydrogenase, mitochondrial (protein)
chain: B1 chain
modifications: 10 mM NAD+

Kd [2]: 3100 nM
B17: malate dehydrogenase, mitochondrial (protein)
chain: B1 chain
modifications: 10 mM AMP

Kd [2]: 180 nM
B18: malate dehydrogenase, mitochondrial (protein)
chain: B1 chain
modifications: 10 mM succinate

Kd [2]: 760 nM and 460 nM
B19: malate dehydrogenase, mitochondrial (protein)
chain: B1 chain
modifications: 10 mM ATP

Kd [2]: 1060 nM
B20: malate dehydrogenase, mitochondrial (protein)
chain: B1 chain
modifications: 1.25 mM ATP
